Measurements: patent US8158376B2, “Bisubstrate fluorescent probe binding to protein kinases” (University of Tartu, priority 2006, dated 2012)
Read-outs that look alike come from different tables or passages of the source.

Columns and labels:
Aurora B = Aurora B (Homo sapiens, UniProt Q96GD4); test: Kinase selectivity panel; type: biochemical; conditions: read-out: residual activity (%) Aurora B
How it was run: (§1)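 Selectivity profiling spans 52 kinases in total; each assay proceeds at 30° C.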

CSK = CSK (Homo sapiens, UniProt P41240); test: Kinase selectivity panel; type: biochemical; conditions: read-out: residual activity (%) CSK
Sequence of CSK (P41240 whole entry, species assumed): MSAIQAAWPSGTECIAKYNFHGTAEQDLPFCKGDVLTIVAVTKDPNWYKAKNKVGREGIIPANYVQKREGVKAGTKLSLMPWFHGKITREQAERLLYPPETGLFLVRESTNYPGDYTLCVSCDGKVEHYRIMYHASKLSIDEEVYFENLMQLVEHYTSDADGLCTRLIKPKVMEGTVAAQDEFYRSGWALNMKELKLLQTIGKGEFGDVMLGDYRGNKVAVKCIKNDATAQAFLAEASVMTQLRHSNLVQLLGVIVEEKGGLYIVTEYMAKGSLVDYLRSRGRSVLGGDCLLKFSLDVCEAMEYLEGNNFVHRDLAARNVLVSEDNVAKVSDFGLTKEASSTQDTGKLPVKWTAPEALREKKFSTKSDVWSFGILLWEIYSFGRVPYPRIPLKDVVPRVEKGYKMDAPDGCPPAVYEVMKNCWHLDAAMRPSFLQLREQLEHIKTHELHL
How it was run: as §1

ERK8 = biological target: T1, ERK8 (Homo sapiens, UniProt Q8TD08); test: Kinase selectivity panel; type: biochemical; conditions: read-out: residual activity (%) ERK8
T1 sequence (Q8TD08 1-544): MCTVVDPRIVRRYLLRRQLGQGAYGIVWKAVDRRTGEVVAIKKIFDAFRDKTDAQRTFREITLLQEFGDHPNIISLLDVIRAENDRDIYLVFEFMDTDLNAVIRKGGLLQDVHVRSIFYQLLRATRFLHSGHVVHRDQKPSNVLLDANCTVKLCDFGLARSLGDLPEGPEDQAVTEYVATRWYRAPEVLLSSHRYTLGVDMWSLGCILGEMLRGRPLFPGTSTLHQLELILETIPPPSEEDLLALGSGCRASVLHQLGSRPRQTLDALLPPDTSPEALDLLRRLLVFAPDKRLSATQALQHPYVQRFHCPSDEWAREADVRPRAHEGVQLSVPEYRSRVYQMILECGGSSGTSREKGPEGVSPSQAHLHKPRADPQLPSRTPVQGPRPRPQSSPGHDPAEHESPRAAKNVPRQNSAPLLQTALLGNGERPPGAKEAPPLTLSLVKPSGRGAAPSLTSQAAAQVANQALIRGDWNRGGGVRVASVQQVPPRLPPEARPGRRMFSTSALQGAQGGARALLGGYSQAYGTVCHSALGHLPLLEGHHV
How it was run: as §1

MAPKAP-K1b/rsk-2 = MAPKAP-K1b/rsk-2 (Homo sapiens, UniProt P51812); test: Kinase selectivity panel; type: biochemical; conditions: ATP 50 μM
Sequence of MAPKAP-K1b/rsk-2 (P51812 whole entry): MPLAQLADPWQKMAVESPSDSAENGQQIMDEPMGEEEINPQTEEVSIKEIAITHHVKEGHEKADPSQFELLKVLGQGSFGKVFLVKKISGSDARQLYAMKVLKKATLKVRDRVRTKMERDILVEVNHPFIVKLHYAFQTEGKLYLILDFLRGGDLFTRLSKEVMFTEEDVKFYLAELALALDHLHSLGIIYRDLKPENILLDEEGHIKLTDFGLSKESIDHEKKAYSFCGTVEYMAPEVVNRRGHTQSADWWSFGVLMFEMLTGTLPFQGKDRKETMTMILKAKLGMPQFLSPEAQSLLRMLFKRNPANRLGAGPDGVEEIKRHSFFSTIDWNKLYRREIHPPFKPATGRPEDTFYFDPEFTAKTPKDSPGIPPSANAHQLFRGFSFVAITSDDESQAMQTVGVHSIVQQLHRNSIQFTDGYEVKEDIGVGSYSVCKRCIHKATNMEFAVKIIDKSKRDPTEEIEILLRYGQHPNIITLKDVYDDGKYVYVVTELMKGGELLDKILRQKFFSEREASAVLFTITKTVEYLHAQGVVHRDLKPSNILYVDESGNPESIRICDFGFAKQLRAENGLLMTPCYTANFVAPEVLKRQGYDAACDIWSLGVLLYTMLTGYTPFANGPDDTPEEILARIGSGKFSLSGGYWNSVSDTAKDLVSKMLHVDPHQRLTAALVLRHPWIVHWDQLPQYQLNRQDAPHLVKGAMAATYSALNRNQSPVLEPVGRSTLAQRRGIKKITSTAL
How it was run: as §1

MKK1 = MKK1 (Homo sapiens, UniProt Q02750); test: Kinase selectivity panel; type: biochemical; conditions: read-out: residual activity (%) MKK1
Sequence of MKK1 (Q02750 whole entry, species assumed): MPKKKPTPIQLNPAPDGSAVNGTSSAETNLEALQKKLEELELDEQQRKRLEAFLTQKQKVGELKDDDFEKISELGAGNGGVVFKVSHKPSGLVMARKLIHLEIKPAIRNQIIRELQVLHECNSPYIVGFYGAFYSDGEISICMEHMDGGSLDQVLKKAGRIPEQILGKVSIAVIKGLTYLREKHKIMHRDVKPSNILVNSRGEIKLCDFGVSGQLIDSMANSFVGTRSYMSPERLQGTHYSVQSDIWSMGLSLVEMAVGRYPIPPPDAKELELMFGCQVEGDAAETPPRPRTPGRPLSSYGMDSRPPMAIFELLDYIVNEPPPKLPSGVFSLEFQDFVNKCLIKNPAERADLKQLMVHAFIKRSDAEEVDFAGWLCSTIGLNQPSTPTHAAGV
How it was run: as §1

NEK6 = NEK6 (Homo sapiens, UniProt Q9HC98); test: Kinase selectivity panel; type: biochemical; conditions: read-out: residual activity (%) NEK6
Sequence of NEK6 (Q9HC98 whole entry, species assumed): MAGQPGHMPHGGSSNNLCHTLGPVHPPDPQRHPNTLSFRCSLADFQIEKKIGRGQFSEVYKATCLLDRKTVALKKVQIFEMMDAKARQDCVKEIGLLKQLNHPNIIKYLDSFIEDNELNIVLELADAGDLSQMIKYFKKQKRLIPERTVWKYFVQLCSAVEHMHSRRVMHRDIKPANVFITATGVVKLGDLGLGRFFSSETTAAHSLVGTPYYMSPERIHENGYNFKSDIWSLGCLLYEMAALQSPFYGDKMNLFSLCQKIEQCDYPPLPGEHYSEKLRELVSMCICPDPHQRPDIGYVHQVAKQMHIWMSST
How it was run: as §1

NEK7 = NEK7 (Homo sapiens, UniProt Q8TDX7); test: Kinase selectivity panel; type: biochemical; conditions: read-out: residual activity (%) NEK7
Sequence of NEK7 (Q8TDX7 whole entry, species assumed): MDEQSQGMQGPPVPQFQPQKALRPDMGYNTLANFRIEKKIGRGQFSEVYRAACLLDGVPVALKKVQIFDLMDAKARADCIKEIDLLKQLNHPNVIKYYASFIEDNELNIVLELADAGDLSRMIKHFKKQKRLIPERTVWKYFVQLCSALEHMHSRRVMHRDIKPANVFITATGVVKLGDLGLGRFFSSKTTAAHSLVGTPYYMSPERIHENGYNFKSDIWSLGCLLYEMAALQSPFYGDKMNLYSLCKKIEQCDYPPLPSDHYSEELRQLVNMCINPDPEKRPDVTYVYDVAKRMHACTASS
How it was run: as §1

PKBb = PKBb (Homo sapiens, UniProt P31751); test: Kinase selectivity panel; type: biochemical; conditions: read-out: residual activity (%) PKBb
Sequence of PKBb (P31751 whole entry): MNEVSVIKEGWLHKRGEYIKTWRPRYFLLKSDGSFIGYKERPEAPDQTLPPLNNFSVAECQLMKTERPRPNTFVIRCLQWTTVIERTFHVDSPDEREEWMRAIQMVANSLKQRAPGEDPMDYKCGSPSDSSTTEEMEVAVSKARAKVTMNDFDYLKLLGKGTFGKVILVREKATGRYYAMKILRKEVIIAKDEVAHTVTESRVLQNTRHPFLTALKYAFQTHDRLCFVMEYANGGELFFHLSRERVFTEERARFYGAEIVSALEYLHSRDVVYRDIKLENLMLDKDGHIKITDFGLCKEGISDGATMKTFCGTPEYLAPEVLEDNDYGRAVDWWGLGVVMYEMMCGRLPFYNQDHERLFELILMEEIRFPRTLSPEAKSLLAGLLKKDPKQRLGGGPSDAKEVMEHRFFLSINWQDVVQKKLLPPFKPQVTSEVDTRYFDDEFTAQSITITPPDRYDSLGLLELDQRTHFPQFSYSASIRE
How it was run: as §1

PRAK = biological target: T2, PRAK (Homo sapiens, UniProt Q8IW41); test: Kinase selectivity panel; type: biochemical; conditions: read-out: residual activity (%) PRAK
T2 sequence (Q8IW41 1-473): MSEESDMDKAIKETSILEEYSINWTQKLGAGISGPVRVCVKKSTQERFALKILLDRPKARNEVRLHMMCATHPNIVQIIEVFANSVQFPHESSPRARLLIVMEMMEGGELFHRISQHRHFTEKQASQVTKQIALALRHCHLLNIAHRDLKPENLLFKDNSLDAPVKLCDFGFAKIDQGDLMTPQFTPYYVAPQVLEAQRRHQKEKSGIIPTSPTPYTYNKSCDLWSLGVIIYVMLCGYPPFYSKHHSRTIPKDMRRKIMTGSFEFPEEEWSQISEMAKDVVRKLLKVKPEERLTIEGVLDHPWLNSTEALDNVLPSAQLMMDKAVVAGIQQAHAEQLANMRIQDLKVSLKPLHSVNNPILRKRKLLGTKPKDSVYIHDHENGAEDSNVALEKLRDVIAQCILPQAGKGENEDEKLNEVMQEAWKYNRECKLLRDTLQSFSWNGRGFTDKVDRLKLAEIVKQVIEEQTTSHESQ
How it was run: as §1

SGK = biological target: T3, SGK (Homo sapiens, UniProt O00141); test: Kinase selectivity panel; type: biochemical; conditions: read-out: residual activity (%) SGK
T3 sequence (O00141 1-431): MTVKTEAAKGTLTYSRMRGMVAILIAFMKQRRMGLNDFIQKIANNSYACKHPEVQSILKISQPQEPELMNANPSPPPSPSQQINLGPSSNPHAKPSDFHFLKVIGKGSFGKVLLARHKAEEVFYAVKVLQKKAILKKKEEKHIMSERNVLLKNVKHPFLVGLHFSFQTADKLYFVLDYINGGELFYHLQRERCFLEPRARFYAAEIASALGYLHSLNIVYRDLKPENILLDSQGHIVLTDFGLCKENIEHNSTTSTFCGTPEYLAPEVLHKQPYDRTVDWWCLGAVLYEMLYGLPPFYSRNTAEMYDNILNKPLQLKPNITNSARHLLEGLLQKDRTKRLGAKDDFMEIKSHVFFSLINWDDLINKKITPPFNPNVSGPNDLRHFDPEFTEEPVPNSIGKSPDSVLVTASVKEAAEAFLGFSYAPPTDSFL
How it was run: as §1

SRPK1 = SRPK1 (Homo sapiens, UniProt Q96SB4); test: Kinase selectivity panel; type: biochemical; conditions: read-out: residual activity (%) SRPK1
Sequence of SRPK1 (Q96SB4 whole entry, species assumed): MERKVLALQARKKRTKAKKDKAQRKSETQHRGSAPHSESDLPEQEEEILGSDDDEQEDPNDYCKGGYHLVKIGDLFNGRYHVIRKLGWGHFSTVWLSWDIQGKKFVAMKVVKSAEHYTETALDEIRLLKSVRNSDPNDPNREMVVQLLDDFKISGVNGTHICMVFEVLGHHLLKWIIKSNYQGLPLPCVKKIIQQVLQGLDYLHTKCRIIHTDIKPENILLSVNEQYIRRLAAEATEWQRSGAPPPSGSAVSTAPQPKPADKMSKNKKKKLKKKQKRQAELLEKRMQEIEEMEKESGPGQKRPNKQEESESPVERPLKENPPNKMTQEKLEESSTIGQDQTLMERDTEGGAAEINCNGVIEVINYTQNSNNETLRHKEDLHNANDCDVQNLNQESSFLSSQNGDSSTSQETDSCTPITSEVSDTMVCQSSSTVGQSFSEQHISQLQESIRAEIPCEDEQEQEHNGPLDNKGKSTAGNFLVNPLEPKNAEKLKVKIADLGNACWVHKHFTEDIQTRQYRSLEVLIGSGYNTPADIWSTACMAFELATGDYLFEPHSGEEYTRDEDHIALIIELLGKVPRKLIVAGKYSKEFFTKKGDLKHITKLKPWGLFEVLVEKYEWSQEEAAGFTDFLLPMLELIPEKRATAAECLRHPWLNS
How it was run: as §1

Src = Src (Homo sapiens, UniProt P12931); test: Kinase selectivity panel; type: biochemical; conditions: read-out: residual activity (%) Src
Sequence of Src (P12931 whole entry, species assumed): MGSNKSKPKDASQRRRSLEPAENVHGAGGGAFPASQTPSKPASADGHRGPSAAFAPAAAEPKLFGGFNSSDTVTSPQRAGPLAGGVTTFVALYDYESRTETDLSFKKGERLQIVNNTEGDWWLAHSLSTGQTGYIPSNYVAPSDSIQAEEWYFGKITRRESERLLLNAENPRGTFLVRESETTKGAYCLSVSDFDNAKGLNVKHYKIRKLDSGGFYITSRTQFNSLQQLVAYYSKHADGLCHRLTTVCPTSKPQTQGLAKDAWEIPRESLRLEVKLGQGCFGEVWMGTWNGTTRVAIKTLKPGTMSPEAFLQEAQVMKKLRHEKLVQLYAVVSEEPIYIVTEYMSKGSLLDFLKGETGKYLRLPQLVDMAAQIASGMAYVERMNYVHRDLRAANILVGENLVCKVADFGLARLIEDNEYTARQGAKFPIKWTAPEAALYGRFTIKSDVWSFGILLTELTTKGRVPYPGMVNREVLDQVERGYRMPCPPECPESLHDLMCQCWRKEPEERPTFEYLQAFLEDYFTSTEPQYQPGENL
How it was run: as §1

cAPK Cα = cAPK Cα (Homo sapiens, UniProt P17612); test: High-throughput displacement of ARC-TAMRA from cAPK Cα, PHERAstar
Method: To determine the inhibition constant (Ki), 3-fold serial dilutions of a given inhibitor are performed analogously as for titration experiments. Before the measurement of fluorescence anisotropies the plate is rotated (400 rpm) for 10 minutes at 30° C.

MSK1 = MSK1 (Homo sapiens, UniProt O75582); test: Kinase selectivity panel; type: biochemical; conditions: inhibitor 1 μM; ATP 20 μM; read-out: residual activity (%) MSK1
How it was run: as §1

PKA = PKA (Homo sapiens, UniProt P17612); test: Kinase selectivity panel; type: biochemical; conditions: inhibitor 1 μM; ATP 20 μM; read-out: residual activity (%) PKA
How it was run: as §1

ROCK-II = ROCK-II (Homo sapiens, UniProt O75116); test: Kinase selectivity panel; type: biochemical; conditions: inhibitor 1 μM; ATP 20 μM; read-out: residual activity (%) ROCK-II
How it was run: as §1

Sequence of Aurora B (Q96GD4 whole entry): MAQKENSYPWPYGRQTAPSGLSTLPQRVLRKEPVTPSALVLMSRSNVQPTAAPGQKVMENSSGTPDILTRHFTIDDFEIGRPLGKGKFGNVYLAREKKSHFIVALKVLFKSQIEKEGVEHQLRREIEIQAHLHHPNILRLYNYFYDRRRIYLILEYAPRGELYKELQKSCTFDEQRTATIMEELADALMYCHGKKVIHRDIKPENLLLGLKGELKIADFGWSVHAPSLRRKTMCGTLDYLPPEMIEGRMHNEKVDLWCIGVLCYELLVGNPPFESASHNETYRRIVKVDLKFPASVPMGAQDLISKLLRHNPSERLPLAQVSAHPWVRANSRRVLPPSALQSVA

SMILES: N=C(N)NCCC[C@@H](NC(=O)[C@@H](CCCNC(=N)N)NC(=O)[C@@H](CCCNC(=N)N)NC(=O)[C@@H](CCCNC(=N)N)NC(=O)[C@@H](CCCNC(=N)N)NC(=O)[C@@H](CCCNC(=N)N)NC(=O)CCCCCNC(=O)[C@H]1O[C@@H](n2cnc3c(N)ncnc32)[C@H](O)[C@@H]1O)C(N)=O [Compound 5, AdcAhx(D-Arg)6-NH2]
- remaining activity at 1 µM (Aurora B): 103%
- remaining activity at 1 µM (CSK): 48%
- remaining activity at 1 µM (ERK8): 50%
- residual activity (%) MAPKAP-K1b/rsk-2 (MAPKAP-K1b/rsk-2; inhibitor 1 μM): 12 (±0) %
- remaining activity at 1 µM (MAPKAP-K1b/rsk-2; read-out: residual activity (%) MAPKAP-K1b/rsk-2, inhibitor 1 μM): 7 to 28%
- remaining activity at 1 µM (MKK1): 77%
- remaining activity at 1 µM (NEK6): 94%
- remaining activity at 1 µM (NEK7): 58%
- remaining activity at 1 µM (PKBb): 3%
- remaining activity at 1 µM (PRAK): 89%
- remaining activity at 1 µM (SGK): 16%
- remaining activity at 1 µM (SRPK1): 100%
- remaining activity at 1 µM (Src): 84%
- Ki (cAPK Cα): 1.1 nM

SMILES: N=C(N)NCCC[C@@H](NC(=O)[C@@H](CCCNC(=N)N)NC(=O)[C@@H](CCCNC(=N)N)NC(=O)[C@@H](CCCNC(=N)N)NC(=O)[C@@H](CCCNC(=N)N)NC(=O)[C@@H](CCCNC(=N)N)NC(=O)CCCCCNCCNS(=O)(=O)c1cccc2cnccc12)C(N)=O [Compound 26, H9-Hex(D-Arg)6-NH2]
- remaining activity at 1 µM (Aurora B; inhibitor 1 μM, ATP 20 μM): 53%
- remaining activity at 1 µM (CSK; inhibitor 1 μM, ATP 20 μM): 70%
- remaining activity at 1 µM (ERK8; inhibitor 1 μM, ATP 5 μM): 52%
- remaining activity at 1 µM (MAPKAP-K1b/rsk-2; inhibitor 1 μM, read-out: residual activity (%) MAPKAP-K1b/rsk-2): 2%
- remaining activity at 1 µM (MKK1; inhibitor 1 μM, ATP 5 μM): 84%
- remaining activity at 1 µM (MSK1): 1%
- remaining activity at 1 µM (NEK6; inhibitor 1 μM, ATP 50 μM): 100%
- remaining activity at 1 µM (NEK7; inhibitor 1 μM, ATP 20 μM): 56%
- remaining activity at 1 µM (PKA): < 10%
- remaining activity at 1 µM (PKBb; inhibitor 1 μM, ATP 50 μM): 3%
- remaining activity at 1 µM (PRAK; inhibitor 1 μM, ATP 20 μM): 97%
- remaining activity at 1 µM (ROCK-II): 0%
- remaining activity at 1 µM (SGK; inhibitor 1 μM, ATP 20 μM): 1%
- remaining activity at 1 µM (SRPK1; inhibitor 1 μM, ATP 50 μM): 99%
- remaining activity at 1 µM (Src; inhibitor 1 μM, ATP 50 μM): 88%
